Experimental data published in US20240209080A1 (PROFOUNDBIO US, published 2024).
Positions count from the first letter of the chain named.

Key:
[1] = target: T1, Recombinant His-tagged FOLR1 (Example 5 ELISA) (UniProt P15328 25-233, limits assumed); assay: ELISA on coated recombinant His-tagged FOLR1, OD450; unit from the axis 'ADC conc ng/ml'
T1 construct: also called FOLR1-his; recombinant protein FOLR-1; not shown: His tag

[2] = target: T2, human FOLR1 on cells (Hela, RPTEC/TERT1, OVCAR3, OV90, IGROV-1, JEG-3, KB, NCI-H441) (human, UniProt P15328 25-234); assay: cell-based or functional assay
T2 sequence (P15328 25-234): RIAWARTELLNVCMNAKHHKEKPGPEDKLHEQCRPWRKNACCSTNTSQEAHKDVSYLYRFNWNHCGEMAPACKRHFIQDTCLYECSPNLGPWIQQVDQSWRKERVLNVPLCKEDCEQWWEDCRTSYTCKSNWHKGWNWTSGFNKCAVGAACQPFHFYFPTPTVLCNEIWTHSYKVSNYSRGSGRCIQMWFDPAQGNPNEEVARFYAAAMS

[3] = target: T3, human FOLR1 protein, His Tag (ACRO-FO1-H52H1) (human, UniProt P15328 25-233); assay: ELISA OD450 on human FOLR1 divided by OD450 of IgG level ELISA
T3 construct: not shown: His tag
T3 sequence (P15328 25-233 limits assumed): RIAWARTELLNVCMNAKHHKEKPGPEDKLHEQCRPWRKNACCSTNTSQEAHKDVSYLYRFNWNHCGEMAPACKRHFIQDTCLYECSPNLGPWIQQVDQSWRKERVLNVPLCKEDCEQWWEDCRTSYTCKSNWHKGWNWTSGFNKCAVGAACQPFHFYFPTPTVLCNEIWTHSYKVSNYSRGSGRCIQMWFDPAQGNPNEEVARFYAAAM

[4] = target: T1, Recombinant His-tagged FOLR1 (Example 5 …); assay: ELISA on coated recombinant His-tagged FOLR1, OD450; unit from the axis 'ng/ml'; curves labelled without '-ADC'
[5] = target: T2, human FOLR1 on cells (Hela, …); assay: flow cytometry on JEG-3 cells, PE anti-human Fc; unit from the axis 'Con.nM'

T1 sequence (P15328 25-233 limits assumed): as above

B1: FR107-ADC (reference antibody mirvetuximab huFR107 conjugated to mc-VC-PAB-MMAE) (antibody, V domains shown)
VH: QVQLVQSGAEVVKPGASVKISCKASGYTFTGYFMNWVKQSPGQSLEWIGRIHPYDGDTFYNQKFQGKATLTVDKSSNTAHMELLSLTSEDFAVYYCTRYDGSRAMDYWGQGTTVTVSS
VL: DIVLTQSPLSLAVSLGQPAIISCKASQSVSFAGTSLMHWYHQKPGQQPRLLIYRASNLEAGVPDRFSGSGSKTDFTLTISPVEAEDAATYYCQQSREYPYTFGGGTKLEIK
modifications: mc-VC-PAB-MMAE on cysteine thiols after TCEP reduction (positions not stated; DAR within 3~4)
notes: Control conjugate
EC50 [1]: 3.39 ng/mL | Internalization ratio (%), Hela, 4 h [2]: 58.4% | Internalization ratio (%), Hela, 24 h [2]: 75.1% | Internalization ratio (%), OV90, 4 h [2]: 28% | Internalization ratio (%), OVCAR3, 4 h [2]: 26.3% | Internalization ratio (%), OVCAR3, 24 h [2]: 44.8%

B2: F8-ADC (antibody F8 conjugated to mc-VC-PAB-MMAE) (antibody, V domains shown)
VH: EVQLLESGGGVVQHGRSLRLSCAASGFTFSSYGMHWVRQAPGKGLEWVAVISYDGSNKYYADSVKGRFTISRDNSKNTLYLQMNSLRAEDTAVYYCARPRAYYGAYGSSFDYWGQGTQVTVSS
VL: EIVMTQSPSSVSASVGDRVAITCRASQGISSWLAWYQQKPGKAPKLLIYAASSLQSGVPSRFSGSGSGTDFTLTISSLQPEDFATYYCQQSYSTPLTFGGGTKVDIK
modifications: mc-VC-PAB-MMAE on cysteine thiols after TCEP reduction (positions not stated; DAR within 3~4)
notes: Antibody-drug conjugate; also called F8 immunoconjugate
EC50 [1]: 6.53 ng/mL | Internalization ratio (%), Hela, 4 h [2]: 45.7% | Internalization ratio (%), Hela, 24 h [2]: 73.1% | Internalization ratio (%), OV90, 4 h [2]: 32.7% | Internalization ratio (%), OVCAR3, 4 h [2]: 34.5% | Internalization ratio (%), OVCAR3, 24 h [2]: 47.6%

B3: anti-FOLR1 antibody F1 (antibody, V domains shown)
VH: B2 VH with H14P
VL: B2 VL
notes: also called clone F1
Target binding/IgG level [3]: 1.08 ratio of OD450

B4: anti-FOLR1 antibody F26 (antibody, V domains shown)
VH: B2 VH with H14R, Q82P
VL: B2 VL
notes: also called clone F26
Target binding/IgG level [3]: 1.21 ratio of OD450 | EC50 [4]: 4.68 ng/mL

B5: anti-FOLR1 antibody F112 (antibody, V domains shown)
VH: B2 VH with H14P, D73H
VL: B2 VL
notes: also called clone F112
Target binding/IgG level [3]: 1.12 ratio of OD450

B6: anti-FOLR1 antibody F138 (antibody, V domains shown)
VH: B2 VH with H14P, R72T, D73H
VL: B2 VL
notes: also called clone F138
Target binding/IgG level [3]: 1.2 ratio of OD450

B7: anti-FOLR1 antibody F123 (antibody, V domains shown)
VH: B2 VH with H14P, G15E, D73A
VL: B2 VL
notes: also called clone F123
Target binding/IgG level [3]: 1.06 ratio of OD450

B8: F26-ADC (antibody F26 conjugated to mc-VC-PAB-MMAE) (antibody, V domains shown)
VH: B2 VH with H14R, Q82P
VL: B2 VL
modifications: mc-VC-PAB-MMAE on cysteine thiols after TCEP reduction (positions not stated; DAR within 3~4)
notes: Antibody-drug conjugate; also called F26 immunoconjugate
EC50 [1]: 8.04 ng/mL | Internalization ratio (%), Hela, 4 h [2]: 43.3% | Internalization ratio (%), Hela, 24 h [2]: 75.5% | Internalization ratio (%), OV90, 4 h [2]: 21.6% | Internalization ratio (%), OVCAR3, 4 h [2]: 38.3% | Internalization ratio (%), OVCAR3, 24 h [2]: 48.1%

B9: anti-FOLR1 antibody F8 (antibody, V domains shown)
VH: B2 VH
VL: B2 VL
notes: also called clone F8
Target binding/IgG level [3]: 1.12 ratio of OD450 | EC50 [4]: 8.48 ng/mL

B10: anti-FOLR1 antibody F100 (antibody, V domains shown)
VH: B2 VH with H14P, D73P
VL: B2 VL
notes: also called clone F100
Target binding/IgG level [3]: 1.48 ratio of OD450

B11: anti-FOLR1 antibody F131 (antibody, V domains shown)
VH: B2 VH with H14P, D73A
VL: B2 VL
notes: also called F131 mAb; clone F131
Target binding/IgG level [3]: 1.02 ratio of OD450 | EC50 [4]: 8.46 ng/mL | EC50 [5]: 1.55 nM

B12: anti-FOLR1 antibody F48 (antibody, V domains shown)
VH: B2 VH with H14P, Q82H
VL: B2 VL
notes: also called clone F48
Target binding/IgG level [3]: 1.12 ratio of OD450

B13: F131-ADC (antibody F131 conjugated to mc-VC-PAB-MMAE) (antibody, V domains shown)
VH: B2 VH with H14P, D73A
VL: B2 VL
modifications: mc-VC-PAB-MMAE on cysteine thiols after TCEP reduction (positions not stated; DAR within 3~4)
notes: Antibody-drug conjugate; also called F131 immunoconjugate
EC50 [1]: 6.64 ng/mL | Internalization ratio (%), Hela, 4 h [2]: 50% | Internalization ratio (%), Hela, 24 h [2]: 74.8% | Internalization ratio (%), OV90, 4 h [2]: 15% | Internalization ratio (%), OVCAR3, 4 h [2]: 35.2% | Internalization ratio (%), OVCAR3, 24 h [2]: 47.7%

B14: anti-FOLR1 antibody F40 (antibody, V domains shown)
VH: EVQLLESGGGVVQPGRSLRLSCAASGFTFSSYAMHWVRQAPGKGLEWVAVISYDGSNKYYADSVKGRFIISRDNSKNTVYLQMNSLRAEDTAVYYCARPTYVFTYTGSSFDYWGQGTQVTVSS
VL: DIQVTQSPSSLSASLGDTVSITCRASRGLTDSVAWYQQKPGQAPKLLIYAASTLQSGVPSRFGGSGSGSYFTLTITSLQPEDVATYYCQNYKSAPWTFGQGTKVEIK
notes: also called clone F40
Target binding/IgG level [3]: 1.02 ratio of OD450
